# Target: T1, PUF4 RNA-binding domain (Saccharomyces cerevisiae, UniProt P25339 537-888)
# T1 sequence: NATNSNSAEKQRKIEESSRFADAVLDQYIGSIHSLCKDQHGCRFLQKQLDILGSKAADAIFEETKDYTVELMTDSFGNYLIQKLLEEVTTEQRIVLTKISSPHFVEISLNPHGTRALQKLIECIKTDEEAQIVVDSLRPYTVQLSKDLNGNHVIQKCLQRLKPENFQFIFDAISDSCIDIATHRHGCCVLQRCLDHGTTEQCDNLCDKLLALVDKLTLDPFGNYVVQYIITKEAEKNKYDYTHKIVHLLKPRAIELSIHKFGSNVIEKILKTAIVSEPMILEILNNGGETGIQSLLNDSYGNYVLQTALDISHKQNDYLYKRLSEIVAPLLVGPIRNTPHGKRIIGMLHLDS
# Assay: Mg; RNA-MaP; 20 mM Na-HEPES pH 7.4, 30 mM KOAc, 0.75 mM MgCl2, 0.1% Tween-20, 5% glycerol, 0.1 mg/mL BSA, 2 mM DTT; 25 C; 0.0125-409.6 nM protein
# Conditions: tags: N-His6-TEV cleaved; C-SNAP kept, Cy3B-labelled; label: tethered on chip by stalled RNA polymerase
row,Binder,Kd [nM]
1,UCUCUUAUUGUAUAUUAUCUCUCUU (ssRNA) [Id_ii_S1_P4E.2_K4.1_C4.2_[C-2A]_H4.1_A4.1_F4.1_T4.2_[G10T]_[T11C]],0.846
2,UCUCUUCGUGUAUAUUAAUUCUCUU (ssRNA) [Id_ii_S1_P4E.2_K4.1_C4.2_[T-1G]_H4.1_A4.1_F4.1_T4.2_[G10A]],1.2
3,UCUCUUAGUGUAUAUUAUUUCUCUU (ssRNA) [Id_ii_S1_P4E.2_K4.1_C4.2_[C-2A]_[T-1G]_H4.1_A4.1_F4.1_T4.2_[G10T]],2.57
4,UCUCUUAUUGUAUAUUAUUUCUCUU (ssRNA) [Id_ii_S1_P4E.2_K4.1_C4.2_[C-2A]_H4.1_A4.1_F4.1_T4.2_[G10T]],0.453
5,UCUCUUCAUGUAUAUUAUUUCUCUU (ssRNA) [Id_ii_S1_P4E.2_K4.1_C4.2_[T-1A]_H4.1_A4.1_F4.1_T4.2_[G10T]],0.915
6,UCUCUUAAUGUAUAUUAUCUCUCUU (ssRNA) [Id_ii_S1_P4E.2_K4.1_C4.2_[C-2A]_[T-1A]_H4.1_A4.1_F4.1_T4.2_[G10T]_[T11C]],2.38
7,UCUCUUCAUGUAUAUUAAUUCUCUU (ssRNA) [Id_ii_S1_P4E.2_K4.1_C4.2_[T-1A]_H4.1_A4.1_F4.1_T4.2_[G10A]],1.1
8,UCUCUUCCUGUAUAUUACUUCUCUU (ssRNA) [Id_ii_S1_P4E.2_K4.1_C4.2_[T-1C]_H4.1_A4.1_F4.1_T4.2_[G10C]],0.91
9,UCUCUUUUUGUAUAUUAGGUCUCUU (ssRNA) [Id_ii_S1_P4E.2_K4.1_C4.2_[C-2T]_H4.1_A4.1_F4.1_T4.2_[T11G]],0.884
10,UCUCUUCGUGUAUAUUAUCUCUCUU (ssRNA) [Id_ii_S1_P4E.2_K4.1_C4.2_[T-1G]_H4.1_A4.1_F4.1_T4.2_[G10T]_[T11C]],0.874
11,UCUCUUUGCAUUUUAUCUCUU (ssRNA) [Ib_S1_P4E.1_K4.1_C4.1_H4.1_[T3C]_A4.1_[A6T]_F4.1_T4.1],1640
12,UCUCUUCCUGUAUAUUAUUUCUCUU (ssRNA) [Id_ii_S1_P4E.2_K4.1_C4.2_[T-1C]_H4.1_A4.1_F4.1_T4.2_[G10T]],0.724
13,UCUCUUAUUGUAUAUUACCUCUCUU (ssRNA) [Id_ii_S1_P4E.2_K4.1_C4.2_[C-2A]_H4.1_A4.1_F4.1_T4.2_[G10C]_[T11C]],0.788
14,UCUCUUACUGUAUAUUACUUCUCUU (ssRNA) [Id_ii_S1_P4E.2_K4.1_C4.2_[C-2A]_[T-1C]_H4.1_A4.1_F4.1_T4.2_[G10C]],1.6
15,UCUCUUUGCAUGUUAUCUCUU (ssRNA) [Ib_S1_P4E.1_K4.1_C4.1_H4.1_[T3C]_A4.1_[A6G]_F4.1_T4.1],2150
16,UCUCUUCAUGUAUAUUAUCUCUCUU (ssRNA) [Id_ii_S1_P4E.2_K4.1_C4.2_[T-1A]_H4.1_A4.1_F4.1_T4.2_[G10T]_[T11C]],0.967
17,UCUCUUAAUGUAUAUUACUUCUCUU (ssRNA) [Id_ii_S1_P4E.2_K4.1_C4.2_[C-2A]_[T-1A]_H4.1_A4.1_F4.1_T4.2_[G10C]],1.68
18,UCUCUUCCUGUAUAUUAAGUCUCUU (ssRNA) [Id_ii_S1_P4E.2_K4.1_C4.2_[T-1C]_H4.1_A4.1_F4.1_T4.2_[G10A]_[T11G]],1.9
19,UCUCUUCGUGUAUAUUAAGUCUCUU (ssRNA) [Id_ii_S1_P4E.2_K4.1_C4.2_[T-1G]_H4.1_A4.1_F4.1_T4.2_[G10A]_[T11G]],3.06

row,Binder,Kd [nM]
1,UCUCUUCCUGUAUAUUAUAUCUCUU (ssRNA) [Id_ii_S1_P4E.2_K4.1_C4.2_[T-1C]_H4.1_A4.1_F4.1_T4.2_[G10T]_[T11A]],0.96
2,UCUCUUAUUGUAUAUUAGUUCUCUU (ssRNA) [Id_ii_S1_P4E.2_K4.1_C4.2_[C-2A]_H4.1_A4.1_F4.1_T4.2],0.431
3,UCUCUUCCUGUAUAUUAUGUCUCUU (ssRNA) [Id_ii_S1_P4E.2_K4.1_C4.2_[T-1C]_H4.1_A4.1_F4.1_T4.2_[G10T]_[T11G]],1.01
4,UCUCUUCCUGUAUAUUAACUCUCUU (ssRNA) [Id_ii_S1_P4E.2_K4.1_C4.2_[T-1C]_H4.1_A4.1_F4.1_T4.2_[G10A]_[T11C]],0.991
5,UCUCUUUUUGUAUAUUAGCUCUCUU (ssRNA) [Id_ii_S1_P4E.2_K4.1_C4.2_[C-2T]_H4.1_A4.1_F4.1_T4.2_[T11C]],0.413
6,UCUCUUCGUGUAUAUUAUUUCUCUU (ssRNA) [Id_ii_S1_P4E.2_K4.1_C4.2_[T-1G]_H4.1_A4.1_F4.1_T4.2_[G10T]],1.19
7,UCUCUUUGCAUAGUAUCUCUU (ssRNA) [Ib_S1_P4E.1_K4.1_C4.1_H4.1_[T3C]_A4.1_[T7G]_F4.1_T4.1],647
8,UCUCUUAAUGUAUAUUACCUCUCUU (ssRNA) [Id_ii_S1_P4E.2_K4.1_C4.2_[C-2A]_[T-1A]_H4.1_A4.1_F4.1_T4.2_[G10C]_[T11C]],2.09
9,UCUCUUAUUGUAUAUUAUGUCUCUU (ssRNA) [Id_ii_S1_P4E.2_K4.1_C4.2_[C-2A]_H4.1_A4.1_F4.1_T4.2_[G10T]_[T11G]],1.27
10,UCUCUUCCUGUAUAUUAAAUCUCUU (ssRNA) [Id_ii_S1_P4E.2_K4.1_C4.2_[T-1C]_H4.1_A4.1_F4.1_T4.2_[G10A]_[T11A]],1.26
11,UCUCUUACUGUAUAUUAUAUCUCUU (ssRNA) [Id_ii_S1_P4E.2_K4.1_C4.2_[C-2A]_[T-1C]_H4.1_A4.1_F4.1_T4.2_[G10T]_[T11A]],1.83
12,UCUCUUCGUGUAUAUUAGGUCUCUU (ssRNA) [Id_ii_S1_P4E.2_K4.1_C4.2_[T-1G]_H4.1_A4.1_F4.1_T4.2_[T11G]],0.943
13,UCUCUUAUUGUAUAUUACUUCUCUU (ssRNA) [Id_ii_S1_P4E.2_K4.1_C4.2_[C-2A]_H4.1_A4.1_F4.1_T4.2_[G10C]],1.16
14,UCUCUUUUUGUAUAUUAAUUCUCUU (ssRNA) [Id_ii_S1_P4E.2_K4.1_C4.2_[C-2T]_H4.1_A4.1_F4.1_T4.2_[G10A]],1.09
15,UCUCUUAUUGUAUAUUAAUUCUCUU (ssRNA) [Id_ii_S1_P4E.2_K4.1_C4.2_[C-2A]_H4.1_A4.1_F4.1_T4.2_[G10A]],1.16
16,UCUCUUCAUGUAUAUUAAAUCUCUU (ssRNA) [Id_ii_S1_P4E.2_K4.1_C4.2_[T-1A]_H4.1_A4.1_F4.1_T4.2_[G10A]_[T11A]],1.57
17,UCUCUUAAUGUAUAUUAUUUCUCUU (ssRNA) [Id_ii_S1_P4E.2_K4.1_C4.2_[C-2A]_[T-1A]_H4.1_A4.1_F4.1_T4.2_[G10T]],1.61
18,UCUCUUUUUGUAUAUUAAAUCUCUU (ssRNA) [Id_ii_S1_P4E.2_K4.1_C4.2_[C-2T]_H4.1_A4.1_F4.1_T4.2_[G10A]_[T11A]],1.21
19,UCUCUUACUGUAUAUUAUUUCUCUU (ssRNA) [Id_ii_S1_P4E.2_K4.1_C4.2_[C-2A]_[T-1C]_H4.1_A4.1_F4.1_T4.2_[G10T]],1.39

row,Binder,Kd [nM]
1,UCUCUUACUGUAUAUUACCUCUCUU (ssRNA) [Id_ii_S1_P4E.2_K4.1_C4.2_[C-2A]_[T-1C]_H4.1_A4.1_F4.1_T4.2_[G10C]_[T11C]],1.69
2,UCUCUUCAUGUAUAUUAAGUCUCUU (ssRNA) [Id_ii_S1_P4E.2_K4.1_C4.2_[T-1A]_H4.1_A4.1_F4.1_T4.2_[G10A]_[T11G]],2.41
3,UCUCUUCCUGUAUAUUAUCUCUCUU (ssRNA) [Id_ii_S1_P4E.2_K4.1_C4.2_[T-1C]_H4.1_A4.1_F4.1_T4.2_[G10T]_[T11C]],0.601
4,UCUCUUAUUGUAUAUUAACUCUCUU (ssRNA) [Id_ii_S1_P4E.2_K4.1_C4.2_[C-2A]_H4.1_A4.1_F4.1_T4.2_[G10A]_[T11C]],1.01
5,UCUCUUCAUGUAUAUUACCUCUCUU (ssRNA) [Id_ii_S1_P4E.2_K4.1_C4.2_[T-1A]_H4.1_A4.1_F4.1_T4.2_[G10C]_[T11C]],0.916
6,UCUCUUAUUGUAUAUUAUAUCUCUU (ssRNA) [Id_ii_S1_P4E.2_K4.1_C4.2_[C-2A]_H4.1_A4.1_F4.1_T4.2_[G10T]_[T11A]],1.12
7,UCUCUUUUUGUAUAUUAGUUCUCUU (ssRNA) [Id_ii_S1_P4E.2_K4.1_C4.2_[C-2T]_H4.1_A4.1_F4.1_T4.2],0.256
8,UCUCUUCCUGUAUAUUAGUUCUCUU (ssRNA) [Id_ii_S1_P4E.2_K4.1_C4.2_[T-1C]_H4.1_A4.1_F4.1_T4.2],0.262
9,UCUCUUACUGUAUAUUAACUCUCUU (ssRNA) [Id_ii_S1_P4E.2_K4.1_C4.2_[C-2A]_[T-1C]_H4.1_A4.1_F4.1_T4.2_[G10A]_[T11C]],1.47
10,UCUCUUCCUGUAUAUUAAUUCUCUU (ssRNA) [Id_ii_S1_P4E.2_K4.1_C4.2_[T-1C]_H4.1_A4.1_F4.1_T4.2_[G10A]],0.693
11,UCUCUUAUUGUAUAUUAAAUCUCUU (ssRNA) [Id_ii_S1_P4E.2_K4.1_C4.2_[C-2A]_H4.1_A4.1_F4.1_T4.2_[G10A]_[T11A]],0.655
12,UCUCUUACUGUAUAUUAUGUCUCUU (ssRNA) [Id_ii_S1_P4E.2_K4.1_C4.2_[C-2A]_[T-1C]_H4.1_A4.1_F4.1_T4.2_[G10T]_[T11G]],1.34
13,UCUCUUCAUGUAUAUUACUUCUCUU (ssRNA) [Id_ii_S1_P4E.2_K4.1_C4.2_[T-1A]_H4.1_A4.1_F4.1_T4.2_[G10C]],1.07
14,UCUCUUUGCAUACUAUCUCUU (ssRNA) [Ib_S1_P4E.1_K4.1_C4.1_H4.1_[T3C]_A4.1_[T7C]_F4.1_T4.1],117
15,UCUCUUCGUGUAUAUUAGUUCUCUU (ssRNA) [Id_ii_S1_P4E.2_K4.1_C4.2_[T-1G]_H4.1_A4.1_F4.1_T4.2],0.399
16,UCUCUUUGCAUCUUAUCUCUU (ssRNA) [Ib_S1_P4E.1_K4.1_C4.1_H4.1_[T3C]_A4.1_[A6C]_F4.1_T4.1],> 2300
17,UCUCUUCAUGUAUAUUAACUCUCUU (ssRNA) [Id_ii_S1_P4E.2_K4.1_C4.2_[T-1A]_H4.1_A4.1_F4.1_T4.2_[G10A]_[T11C]],1.15
18,UCUCUUAUUGUAUAUUAGCUCUCUU (ssRNA) [Id_ii_S1_P4E.2_K4.1_C4.2_[C-2A]_H4.1_A4.1_F4.1_T4.2_[T11C]],0.714
19,UCUCUUACUGUAUAUUAUCUCUCUU (ssRNA) [Id_ii_S1_P4E.2_K4.1_C4.2_[C-2A]_[T-1C]_H4.1_A4.1_F4.1_T4.2_[G10T]_[T11C]],1.4
